Molecular target: T1, ETS-4 (Caenorhabditis elegans) (UniProt A8WFJ9)
T1 sequence: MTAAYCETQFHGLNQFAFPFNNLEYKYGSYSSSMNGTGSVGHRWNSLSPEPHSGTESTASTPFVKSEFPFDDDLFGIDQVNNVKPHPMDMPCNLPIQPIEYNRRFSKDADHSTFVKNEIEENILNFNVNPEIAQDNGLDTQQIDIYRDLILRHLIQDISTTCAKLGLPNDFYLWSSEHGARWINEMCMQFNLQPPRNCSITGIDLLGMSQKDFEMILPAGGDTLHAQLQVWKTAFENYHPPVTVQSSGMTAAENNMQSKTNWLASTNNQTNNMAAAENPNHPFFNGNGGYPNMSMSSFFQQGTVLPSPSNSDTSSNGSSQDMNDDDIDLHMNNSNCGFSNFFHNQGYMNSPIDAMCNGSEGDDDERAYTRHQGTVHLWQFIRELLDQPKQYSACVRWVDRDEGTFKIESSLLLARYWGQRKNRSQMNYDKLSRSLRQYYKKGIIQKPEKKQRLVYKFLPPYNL
Assay: EMSA
Conditions: 25 mM Tris-Cl pH 7.9, 10% glycerol, 0.1 mM EDTA, 60 mM KCl, 6 mM MgCl2, 0.2 mg/ml BSA, 10 mM DTT, 50 ng poly[d(I-C)] in 20 ul, 1 h at 4 C; 6% native PAGE at …

TCGACGGCCAAGCCGGAAGTGAGTGCC (double strand) [ETS Site-WT (GGAA)]
Kd: 1 nM

TCGACGGCCAAGCCGGATGTGAGTGCC (double strand) [ETS Site-WT (GGAT)]
Kd: 1 nM

Reference: PMC2940738
